Measured values reported in patent publication US20200277375A1 (ULTRAHUMAN FOUR, published 2020).
Substitutions are numbered along the chain they refer to. In names and notes the source's numbering stands. Blank lines part the entries; values can stand above or below the binder they belong to.

Assays:
[1] = target: T1, human CD47-Fc (human, UniProt Q08722 19-139); test: direct specificity ELISA, IgG 1 µg/ml, FIG. 5
T1 construct: Recombinant CD47-Fc; also called hCD47-Fc; not shown: Fc part
Text: (§1) FIG. 5A-FIG. 5G. Binding specificity analyses for prioritized lead clones. Off-target homologue binding risk for mVH/mVL in IgG1 (FIG. 5A) and IgG1null (FIG. 5B) format and library-derived leads A-D5 (FIG. 5C), VH-A1/VL-B1 (FIG. 5D), F-E7 (FIG. 5E), D-H3 (FIG. 5F), and G-B6 (FIG. 5G) in IgG1null format was examined by direct ELISA on CD47-Fc orthologs and a panel of 14 human immunoglobulin superfamily proteins as labelled on each X-axis (“B” refers to blank). Binding to human, cyno and murine CD47-Fcs (h/c/mCD47-Fc) was performed at an IgG concentration of 1 μg/ml. Binding to all other proteins was performed at an IgG concentration of 10 μg/ml.
(§2) To ensure that that lead clones had not suffered from loss of target specificity during the mutation and reselection process; lead and control IgG1 clones were tested for binding to a panel of 14 purified human proteins from the immunoglobulin superfamily (FIG. 5).

[2] = target: T2, mouse CD47-Fc (mouse, UniProt Q61735 19-140, limits assumed); test: direct specificity ELISA, IgG 1 µg/ml, FIG. 5
T2 construct: Recombinant CD47-Fc; also called mCD47-Fc; mCD37-Fc [sic]; not shown: Fc part
T2 sequence (looked up): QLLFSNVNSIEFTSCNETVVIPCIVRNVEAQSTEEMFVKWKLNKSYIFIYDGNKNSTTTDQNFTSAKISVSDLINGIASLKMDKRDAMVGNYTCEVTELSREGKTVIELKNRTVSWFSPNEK
Text: as §1, §2

[3] = target: T3, cynomolgus monkey CD47-Fc (cynomolgus monkey, UniProt A0A2K5X523 19-139); test: direct specificity ELISA, IgG 1 µg/ml, FIG. 5
T3 construct: Recombinant CD47-Fc; also called cyno CD47-Fc; cCD47-Fc; not shown: Fc part
Text: as §1, §2

[4] = target: T4, cynomolgus monkey CD47 on transfected CHO-K1 cells (cynomolgus monkey, UniProt A0A5F8AK49 19-323 (rhesus entry)); test: flow cytometry, cyno CD47-transfected CHO-K1, FIG. 6
T4 construct: whole, on cells; also called cyno CD47+ cells
Method: (§3) FIG. 6A-FIG. 6C. Flow cytometric binding to human and cyno CD47+CHO-K1 cells. Commercial anti-CD47 antibody MS1991, human IgG1 (“I IgG1”) and IgG4 (“I IgG4”) Isotype controls, lead library-derived IgGs in both IgG1null (“IgG1N”) and IgG4(S228P) formats were examined for specific binding on cyno-transfected CHO-K1 cells (FIG. 6A), human-transfected CHO-K1 cells (FIG. 6B), and wild type (wt, i.e. untransfected) CHO-K1 cells (FIG. 6C). IgGs were tested at concentrations ranging from 24-100,000 ng/ml. Concentration-dependent binding was observed against both human and cyno cell lines for all CD47-specific antibodies but not Isotype controls.
(§4) Antibodies to CD47 were analysed for concentration-dependent binding at the cell surface via flow cytometry. CHO-K1 cells were stably transfected with either human, mouse or cyno CD47 full-length cDNAs. Anti-CD47 IgGs mVH/mVL, VH-A1/VL-B1, A-D5, G-B6, F-E7 and D-H3, and an isotype control IgG1 were then all tested in IgG1null and IgG4(S228P) formats, alongside a commercial mouse anti-human CD47 monoclonal MS1991, over a concentration range of 100,000-24 ng/ml for binding to human, cyno or wild type control (‘wt’, i.e. untransfected) CHO-K1.

[5] = target: T5, human CD47 on cells (human CD47-transfected CHO-K1; HL60) (human, UniProt Q08722 19-323); test: flow cytometry, human CD47-transfected CHO-K1, FIG. 6
T5 construct: whole, on cells; also called human CD47+ cells; human CD47+HL60 cells
Method: as §3, §4

[6] = target: T1, human CD47-Fc; test: direct specificity ELISA, IgG 10 µg/ml, FIG. 13
[7] = target: T2, mouse CD47-Fc; test: direct specificity ELISA, IgG 10 µg/ml, FIG. 13
[8] = target: T3, cynomolgus monkey CD47-Fc; test: direct specificity ELISA, IgG 10 µg/ml, FIG. 13
[9] = target: T1, human CD47-Fc; test: direct titration ELISA, FIG. 11A
Method: (§5) FIG. 11A-FIG. 11C. Direct titration ELISA for A-D5.4-derived designer IgGs binding to human, mouse and cyno CD47-Fc proteins. Chimeric anti-CD47 (mVH/mVL), designer A-D5.4-derived clones in human IgG1 null format were titrated (in μg/ml) in a direct binding ELISA against human (FIG. 11A), cyno (FIG. 11B) and mouse (FIG. 11C) CD47-Fc proteins. […] In the figure legends, “IgG1NI” refers to IgG1 null isotype.
(§6) To coat Greiner Bio-One High bind ELISA plates, target proteins were diluted to 1 μg/ml in carbonate buffer and added at 100 μl per well, at 4° C., o/n. Coated plates were washed 3× with PBS pH7.4, blocked with 1% BSA in PBS (380 μl/well) for 1 hr at RT, then washed 3× with PBS-Tween 20 (PBST). CD47 antibodies (100 μl/well; diluted in PBST) were then added and then incubated 1 hr at RT. Plates were then washed 3× with PBST and goat anti-human kappa chain-HRP added (100 μl/well) at RT, for 1 hr. Plates were then washed 3× with PBST and twice with PBS before the addition of 100 μl TMB per well. Reactions were stopped by adding 100 μl 2M H₂SO₄/well and OD was read on a plate reader at 450 nm.

[10] = target: T2, mouse CD47-Fc; test: direct titration ELISA, FIG. 11C
Method: as §5, §6

[11] = target: T1, human CD47-Fc; test: direct titration ELISA, FIG. 9A
Method: (§7) FIG. 9A-FIG. 9C. Direct titration ELISA for designer IgGs binding to human, mouse and cyno CD47-Fc proteins. Chimeric anti-CD47 (mVH/mVL), designer A-D5-derived clones in human IgG1null format were titrated (in μg/ml) in a direct binding ELISA against human (FIG. 9A), cyno (FIG. 9B) and mouse (FIG. 9C) CD47-Fc proteins. […] In the figure legend, “IgG1NI” refers to IgG1 null isotype.
as §6

[12] = target: T2, mouse CD47-Fc; test: direct titration ELISA, FIG. 9C
Method: as §7, §6

[13] = target: T1, human CD47-Fc; test: direct titration ELISA, FIG. 3
Method: (§8) FIG. 3A-FIG. 3H. Direct titration ELISA for IgG binding to human, mouse and cyno CD47-Fc proteins. Chimeric anti-CD47 (mVH/mVL), library-derived clones in human IgG1 null format were titrated (in μg/ml) in a direct binding ELISA against human, mouse and cyno CD47-Fc proteins (FIG. 3A-FIG. 3H). […] Clone TTP lost almost all binding function.
as §6

[14] = target: T2, mouse CD47-Fc; test: direct titration ELISA, FIG. 3
Method: as §8, §6

B1: G-B6 in human IgG1null format (antibody, V domains shown)
VH: EVQLVQSGAEVKKPGESLKISCKGSGYSFTNYYIFWVRQMPGKGLEWIGDINPVNGDTNFSPSFQGQVTISADKSISTAYLQWSSLKASDTAMYYCARGGYTMDKWGQGTLVTVSS
VL: DIVMTQSPLSLPVTPGEPASISCRSSQSLVHSNGYTYLHWYLQKPGQSPQLLIYKGSYRASGVPDRFSGSGSGTDFTLKISRVEAEDVGVYYCSQNTQTPRTFGQGTKVEIK
notes: IgG1null (L234A/L235A/G237A), kappa
OD450 nm [1]: > 2 OD450 nm
OD450 nm [2]: > 1.25 OD450 nm
OD450 nm [3]: > 2 OD450 nm
maximum MFI, fold over untransfected CHO-K1 [4]: > 10 fold
maximum MFI, fold over untransfected CHO-K1 [5]: > 10 fold

B2: A-D5.4 in human IgG1null format (antibody, V domains shown)
VH: B1 VH with S28T, I48M, D50I, N55D, F60Y, S61N, K105R
VL: B1 VL with V30L, T36N, G56V, Y58N, A60L, S94F, Q98H
notes: Designer clone from A-D5; IgG1null; also called A-D.4
OD450 nm [6]: > 2 OD450 nm
OD450 nm [7]: > 2 OD450 nm
OD450 nm [8]: > 2 OD450 nm

B3: A-D5.14 in human IgG1null format (antibody, V domains shown)
VH: B1 VH with I48M, D50I, N55D, N59R, F60Y, K105R
VL: B1 VL with V30L, N33S, T36N, G56V, Y58N, A60L, S94F, Q98H
notes: Designer clone from A-D5.4; IgG1null
binding result [9]: binds
binding result [10]: binds

B4: A-D5.12 in human IgG1null format (antibody, V domains shown)
VH: B1 VH with I48M, D50I, N55D, N59R, F60Y, S61N, K105R
VL: B1 VL with V30L, T36N, G56V, Y58N, A60L, S94F, Q98H
notes: as for B3
binding result [9]: binds
binding result [10]: binds

B5: A-D5.8 in human IgG1null format (antibody, V domains shown)
VH: B1 VH with S28T, I48M, D50I, N55D, F60Y, S61N, K105R
VL: B1 VL with V30L, N33Q, G56V, Y58N, A60L, S94F, Q98H
notes: Designer clone from A-D5; IgG1null
binding result [11]: binds
binding result [12]: binds

B7: D-H3 in human IgG1null format (antibody, V domains shown)
VH: B1 VH with I48M, F60Y, M103P, K105Y
VL: B1 VL with V30L, T36N, Y58N, A60F, T97L, Q98H, T99V
notes: as for B1
OD450 nm [1]: > 2 OD450 nm
OD450 nm [2]: > 1.25 OD450 nm
OD450 nm [3]: > 2 OD450 nm
maximum MFI, fold over untransfected CHO-K1 [4]: > 10 fold
maximum MFI, fold over untransfected CHO-K1 [5]: > 10 fold

B9: F-E7 in human IgG1null format (antibody, V domains shown)
VH: B1 VH with I48M, D50I, F60Y, S61N, D104G
VL: B1 VL with Y35N, H39D, A60F, N96A, Q98H
notes: as for B1
OD450 nm [1]: > 2 OD450 nm
OD450 nm [2]: > 1.25 OD450 nm
OD450 nm [3]: > 2 OD450 nm
maximum MFI, fold over untransfected CHO-K1 [4]: > 10 fold
maximum MFI, fold over untransfected CHO-K1 [5]: > 10 fold

B13: A-D5 in human IgG1null format (antibody, V domains shown)
VH: B1 VH with S28T, I48M, D50I, N55D, F60Y, S61N, K105R
VL: B1 VL with V30L, G56V, Y58N, A60L, S94F, Q98H
notes: IgG1null (IgG1 L234A/L235A/G237A), kappa; also called IgG1 A-D5N
OD450 nm [1]: > 2 OD450 nm
OD450 nm [2]: > 1.25 OD450 nm
OD450 nm [3]: > 2 OD450 nm
maximum MFI, fold over untransfected CHO-K1 [4]: > 10 fold
maximum MFI, fold over untransfected CHO-K1 [5]: > 10 fold

Next, values leading:

binding result [11]: binds
binding result [12]: binds
B6: A-D5.2 in human IgG1null format (antibody, V domains shown)
VH: B1 VH with I48M, D50I, N55D, N59R, F60Y, S61N, K105R
VL: B1 VL with V30L, G56V, Y58N, A60L, S94F, Q98H
notes: as for B5

binding result [9]: binds
binding result [10]: binds
B8: A-D5.17 in human IgG1null format (antibody, V domains shown)
VH: B1 VH with I48M, D50I, N55D, N59R, F60Y, K105R
VL: B1 VL with V30L, N33T, T36N, G56V, Y58N, A60L, S94F, Q98H
notes: as for B3

binding result [9]: binds
binding result [10]: binds
B10: A-D5.18 in human IgG1null format (antibody, V domains shown)
VH: B1 VH with I48M, D50I, N55D, N59R, F60Y, K105R
VL: B1 VL with V30L, G34A, T36N, G56V, Y58N, A60L, S94F, Q98H
notes: as for B3

binding result [9]: binds
binding result [10]: binds
B11: A-D5.15 in human IgG1null format (antibody, V domains shown)
VH: B1 VH with I48M, D50I, N55D, N59R, F60Y, K105R
VL: B1 VL with V30L, N33G, T36N, G56V, Y58N, A60L, S94F, Q98H
notes: as for B3

binding result [9]: binds
binding result [10]: binds
B12: A-D5.13 in human IgG1null format (antibody, V domains shown)
VH: B1 VH with I48M, D50I, N55D, N59R, F60Y, K105R
VL: B1 VL with V30L, T36N, G56V, Y58N, A60L, S94F, Q98H
notes: as for B3

binding result [13]: binds
binding result [14]: binds
B14: MH (Maximally Humanized) in human IgG1null format (antibody, V domains shown)
VH: B1 VH with D50I, N55D, N59R, F60Y, K105I
VL: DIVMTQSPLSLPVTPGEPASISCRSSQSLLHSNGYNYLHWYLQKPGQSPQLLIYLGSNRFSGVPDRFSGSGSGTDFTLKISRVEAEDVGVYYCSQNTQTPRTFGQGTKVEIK
notes: Designer clone; IgG1null, kappa; also called designer clone MH
